T1: human CD70 (human, UniProt P32970 1-193)
T1 construct: whole, on cells; Stated as human for the CHO transfectants; also called cell surface CD70s
T1 sequence (looked up): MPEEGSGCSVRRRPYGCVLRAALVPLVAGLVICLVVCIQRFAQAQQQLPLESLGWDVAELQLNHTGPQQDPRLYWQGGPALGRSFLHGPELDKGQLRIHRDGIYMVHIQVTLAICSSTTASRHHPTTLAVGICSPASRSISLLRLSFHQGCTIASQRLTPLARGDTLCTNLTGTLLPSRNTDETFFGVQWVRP


Columns and labels:
[1] = molecular target: T1, human CD70; assay: flow cytometry on CD70+ CHO cells
Experimental: (§1) Cells were washed with 1% BSA-PBS once, and then incubated with 100 μl 1:500 diluted FITC-conjugated secondary antibody against human IgG-Fc (Cat #F9512, Sigma) at 4° C. for 45 min. Cells were washed once with 1% BSA-PBS, re-suspended in 200 μl 1% BSA-PBS, and then subject to FACS analysis using a flow cytometer (Merck Millipore, Guava® easyCyte 5HT).

[2] = molecular target: T1, human CD70; assay: flow cytometry on CHO cells expressing human CD70
Experimental: as §1

[3] = molecular target: T1, human CD70; assay: flow cytometry on CD47+CD70+ Raji cells

Row | binding result [1] | Binder | other results
1 | binds | IMM40H (antibody, human IgG1, kappa, V domains shown, Humanized IgG1/kappa; X=N for IMM40H; N85 is a glycosylation site in the light chain variable region; also called IMM4OH) VH: QVQLVQSGAEVKKPGASVKVSCKVSGYTFTDSALHWVRQAPGKGLEWMGVISTYDGDTDYNQKFKGRVTMTEDTSTDTAYMELSSLRSEDTAVYYCARRGYYDYDWFPYWGQGTLVTVSA VL: DIVLTQSPASLAVSPGQRATITCRASKSVSASGYSFLHWYQQKPGQPPKLLIYLASNLESGVPARFSGSGSGTDFTLTINPVEANDTANYYCQHSRELPPTFGGGTKVEIKR | 
2 | binds | IMM40M (antibody, human IgG1, kappa, V domains shown, IMM40H with N85E in the light chain variable region, which removes a glycosylation site; also called IMM4OM) VH: QVQLVQSGAEVKKPGASVKVSCKVSGYTFTDSALHWVRQAPGKGLEWMGVISTYDGDTDYNQKFKGRVTMTEDTSTDTAYMELSSLRSEDTAVYYCARRGYYDYDWFPYWGQGTLVTVSA VL: DIVLTQSPASLAVSPGQRATITCRASKSVSASGYSFLHWYQQKPGQPPKLLIYLASNLESGVPARFSGSGSGTDFTLTINPVEAEDTANYYCQHSRELPPTFGGGTKVEIKR | 
3 |  | IMM40C (antibody, human IgG1, kappa, V domains shown, Chimeric IgG: mouse variable regions with human IgG1 and human kappa constant regions; expressed in CHO-S cells) VH: QVQLQQSGPEVVRPGVSVKISCKGSGYTFTDSALHWVKQSHAKSLEWIGVISTYDGDTDYNQKFKGKATMTVDKSSSTAYMELARLTSEDSAIYYCARRGYYDYDWFPYWGQGTLVTVSA VL: DIVLTQSPASLAISLGQRATISCRASKSVSASGYSFLHWYQQKPGQPPKLLIYLASNLESGVPARFSGSGSGTDFTLNIHPVEEEDAATFYCQHSRELPPTFGGGTKLEIKR | binding result [2]: binds
4 |  | Cusatuzumab (antibody, human IgG1, lambda, V domains shown, Anti-CD70 IgG used as comparator) VH: EVQLVESGGGLVQPGGSLRLSCAASGFTFSVYYMNWVRQAPGKGLEWVSDINNEGGTTYYADSVKGRFTISRDNSKNSLYLQMNSLRAEDTAVYYCARDAGYSNHVPIFDSWGQGTLVTVSS VL: QAVVTQEPSLTVSPGGTVTLTCGLKSGSVTSDNFPTWYQQTPGQAPRLLIYNTNTRHSGVPDRFSGSILGNKAALTITGAQADDEAEYFCALFISNPSVEFGGGTQLTVLG | binding result [3]: binds
